Here are results for two molecules from paper PMC9599074, “Integration of Power-Free and Self-Contained Microfluidic Chip with Fiber Optic Particle Plasmon Resonance Aptasensor for Rapid Detection of SARS-CoV-2 Nucleocapsid Protein”.

This data set concerns the target SARS-CoV-2 nucleocapsid protein (N-protein) (SARS-CoV-2, UniProt P0DTC9 1-419). Put plainly: FOPPR biosensor kinetics; 1x PBS pH 7.4, […]; temperature not stated. Particulars: protein: commercial; chain copies: 2.

B1: NP-A61 (ssDNA)
DNA: GCTGGATGTTGACCTTTACAGATCGGATTCTGTGGGGCGTTAAACTGACACATCCAGC
modifications: terminal amine (end not stated), coupled to carboxyl AuNP
In the case of B1, the affinity, expressed as Kd, was 5.02 nM.

B2: NP-A48 (ssDNA)
DNA: GCTGGATGTCGCTTACGACAATATTCCTTAGGGGCACCGCTACATTGACACATCCAGC
modifications: terminal amine (end not stated), coupled to carboxyl AuNP
The molecule B2 yielded an equilibrium dissociation constant (Kd) of 2.63 nM.
